B1: endogenous transferrin receptor (TfR) of RGC5 cells (receptor, rat (endogenous in RGC5), UniProt Q99376 1-761, looked up)
chain: MMDQARSAFSNLFGGEPLSYTRFSLARQVDGDNSHVEMKLAADEEENADSNMKASVRKPKRFNGRLCFATIAVVIFFLIGFMIGYLGYCKRVEQKEECVRLAEAEEADKSENDETEYVPKSSRLFWADLKTLLSEKLNSIEFTDIIKQLSQNTYTPREAGSQKDENLAYYIENLFHDFKFSKVWRDEHYVKIQVKNSVSQNLVTINSGSNIDPVEAPEGYVAFSKAGEVTGKLVHANFGTKKDFEELNYSVNGSLVIVRAGKITFAEKVANAQSFNAIGVLIYMDRNTFPVVEADLQFFGHAHLGTGDPYTPGFPSFNHTQFPPSQSSGLPSIPVQTISRAAAEKLFKNMEGNCPPSWNIDSSCKLELSQNQNVKLTVNNVLKETRILNIFGVIKGYEEPDRYIVVGAQRDAWGPGVAKSSVGTGLLLKLAQVFSDMISKDGFRPSRSIIFASWTAGDYGAVGATEWLEGYLSSLHLKAFTYINLDKVVLGTSNFKVSASPLLYTLMGKIMQDVKHPIDGKYLYRDSNWISKIEELSLDNAAFPFLAYSGIPAVSFCFCEDEDYPYLGTKLDTYEILIQKVPQLNQMVRTAAEVAGQFIIKLTHDIELTLDYEMYNSKLLSFMKDLNQFKADIKDMGLSLQWLYSARGDYFRATSRLTTDFHNAEKTNRFVMREINDRIMKVEYHFLSPYVSPRESPFRHIFWGSGSHTLSALVENLRLRQKNITAFNETLFRNQLALATWTIQGVANALSGDIWNIDNEF
notes: transferrin receptor, endogenous in rat RGC5 cells, detected as a 95-kDa band by mouse monoclonal anti-human TfR (Zymed); The abstract calls RGC5 a rat cell line; also called 95-kDa TfR; source: endogenous, RGC5 lysate

Assays:
[1] = target: T1, L157A optineurin-GFP (OPTN_(L157A)-GFP) (human, UniProt Q96CV9 1-577, L157A); experiment: co-IP; Tet-on inducible RGC5 cells, doxycycline 1 ug/ml 16 h, expressing OPTNWT-, OPTN_(E50K)- or OPTN_(L157A)-GFP; lysate precipitated with polyclonal anti-GFP; eluates blotted with monoclonal anti-Rab8 or anti-TfR and anti-GFP; band intensity ratio relative to wild type
T1 construct: optineurin, human, with the point mutation Leu157 to Ala made by site-directed mutagenesis; also called L157A mutant; not shown: GFP, C-terminal, kept
T1 sequence (Q96CV9 whole entry L157A): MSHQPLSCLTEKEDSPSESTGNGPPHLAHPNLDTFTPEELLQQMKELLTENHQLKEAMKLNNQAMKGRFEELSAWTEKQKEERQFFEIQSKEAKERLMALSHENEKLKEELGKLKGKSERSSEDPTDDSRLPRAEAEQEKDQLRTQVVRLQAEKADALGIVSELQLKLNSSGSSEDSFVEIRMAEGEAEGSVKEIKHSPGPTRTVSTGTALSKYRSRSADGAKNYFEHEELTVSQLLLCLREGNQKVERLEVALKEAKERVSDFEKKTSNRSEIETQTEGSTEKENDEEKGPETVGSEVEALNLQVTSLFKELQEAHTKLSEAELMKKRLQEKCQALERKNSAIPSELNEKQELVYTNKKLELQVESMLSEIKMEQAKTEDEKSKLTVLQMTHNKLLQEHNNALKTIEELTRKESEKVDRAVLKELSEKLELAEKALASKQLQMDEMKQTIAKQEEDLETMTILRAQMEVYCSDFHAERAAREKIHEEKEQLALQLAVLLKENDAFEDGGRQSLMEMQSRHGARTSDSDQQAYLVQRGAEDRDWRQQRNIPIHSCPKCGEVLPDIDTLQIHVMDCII

[2] = target: T2, E50K optineurin-GFP (OPTN_(E50K)-GFP) (human, UniProt Q96CV9 1-577, E50K); experiment: as above
T2 construct: optineurin, human, with the glaucoma-associated mutation Glu50 to Lys; also called E50K mutant; not shown: GFP, C-terminal, kept
T2 sequence (Q96CV9 whole entry E50K): as the sequence (Q96CV9 whole entry L157A) above, with E50K, A157L counted along it

Molecule	fold reduction of Rab8 binding against OPTNWT-GFP (fold lower than wild type) [1]	fold increase of co-precipitated Rab8 against OPTNWT-GFP (fold higher than wild type) [2]	fold reduction of co-precipitated TfR against wild type optineurin ([1]; partners not purified)	fold increase of co-precipitated TfR against wild type optineurin ([2]; partners not purified)
endogenous Rab8 of RGC5 cells (from UniProt P35280 1-207) (natural protein)	5	5	–	–
B1	–	–	~5 fold lower than wild type	~10 fold higher than wild type

Source: PMC2902519, “Impairment of Protein Trafficking upon Overexpression and Mutation of Optineurin” (PLoS ONE, 2010)
